Reference: US20240132578A1

How the values were obtained:
Test in all cases: cell-based or functional assay
[1] = biological target: HIV-1 Env of isolate MGRM-G-004 (subtype G), on pseudovirus (HIV-1)
[2] = biological target: HIV-1 Env of isolate MGRM-C-009 (subtype C) (HIV-1)
[3] = biological target: HIV-1 Env of isolate MGRM-G-016 (subtype G), on pseudovirus (HIV-1)
[4] = biological target: HIV-1 Env of isolate MGRM-C-008 (subtype C) (HIV-1)
[5] = biological target: HIV-1 Env of isolate MGRM-G-009 (subtype G), on pseudovirus (HIV-1)
[6] = biological target: HIV-1 Env of isolate MGRM-G-006 (subtype G), on pseudovirus (HIV-1)
[7] = biological target: HIV-1 Env of isolate MGRM-C-024 (subtype C) (HIV-1)
[8] = biological target: HIV-1 Env of isolate MGRM-C-005 (subtype C) (HIV-1)
[9] = biological target: HIV-1 Env of isolate MGRM-G-013 (subtype G), on pseudovirus (HIV-1)
[10] = biological target: HIV-1 Env of isolate MGRM-C-026 (subtype C) (HIV-1)
[11] = biological target: HIV-1 Env of isolate MGRM-C-025 (subtype C) (HIV-1)
[12] = biological target: HIV-1 Env of isolate MGRM-C-015 (subtype C) (HIV-1)
[13] = biological target: HIV-1 Env of isolate MGRM-G-017 (subtype G), on pseudovirus (HIV-1)
[14] = biological target: HIV-1 Env of isolate MGRM-C-006 (subtype C) (HIV-1)
[15] = biological target: HIV-1 Env of isolate MGRM-G-001 (subtype G), on pseudovirus (HIV-1)
[16] = biological target: HIV-1 Env of isolate MGRM-G-011 (subtype G), on pseudovirus (HIV-1)
[17] = biological target: HIV-1 Env of isolate MGRM-C-013 (subtype C) (HIV-1)
[18] = biological target: HIV-1 Env of isolate MGRM-G-028 (subtype G), on pseudovirus (HIV-1)
[19] = biological target: HIV-1 Env of isolate MGRM-C-012 (subtype C) (HIV-1)
[20] = biological target: HIV-1 Env of isolate MGRM-G-019 (subtype G), on pseudovirus (HIV-1)
[21] = biological target: HIV-1 Env of isolate MGRM-C-017 (subtype C) (HIV-1)
[22] = biological target: HIV-1 Env of isolate MGRM-C-002 (subtype C) (HIV-1)
[23] = biological target: HIV-1 Env of isolate 98IN022 (subtype C) (HIV-1)
[24] = biological target: HIV-1 Env of isolate MGRM-G-027 (subtype G), on pseudovirus (HIV-1)
[25] = biological target: HIV-1 Env of isolate MGRM-G-025 (subtype G), on pseudovirus (HIV-1)
[26] = biological target: HIV-1 Env of isolate MGRM-C-027 (subtype C) (HIV-1)
[27] = biological target: HIV-1 Env of isolate MGRM-C-023 (subtype C) (HIV-1)
[28] = biological target: HIV-1 Env of isolate MGRM-C-004 (subtype C) (HIV-1)
[29] = biological target: HIV-1 Env of isolate MGRM-G-024 (subtype G), on pseudovirus (HIV-1)
[30] = biological target: HIV-1 Env of isolate MGRM-C-019 (subtype C) (HIV-1)
[31] = biological target: HIV-1 Env of isolate 97ZA012 (subtype C) (HIV-1)
[32] = biological target: HIV-1 Env of isolate MGRM-C-007 (subtype C) (HIV-1)
[33] = biological target: aMLV envelope, on pseudovirus (negative control)
[34] = biological target: HIV-1 Env of isolate MGRM-C-028 (subtype C) (HIV-1)
[35] = biological target: HIV-1 Env of isolate MGRM-C-014 (subtype C) (HIV-1)
[36] = biological target: HIV-1 Env of isolate MGRM-C-020 (subtype C) (HIV-1)
[37] = biological target: HIV-1 Env of isolate 93MW959 (subtype C) (HIV-1)
[38] = biological target: HIV-1 Env of isolate MGRM-G-014 (subtype G), on pseudovirus (HIV-1)
[39] = biological target: HIV-1 JR-CSF Env P470A (HIV-1 JR-CSF) (UniProt P20871)
[40] = biological target: HIV-1 JR-CSF Env R480A (HIV-1 JR-CSF) (UniProt P20871)
[41] = biological target: HIV-1 Env of isolate MGRM-G-015 (subtype G), on pseudovirus (HIV-1)
[42] = biological target: HIV-1 Env of isolate MGRM-C-010 (subtype C) (HIV-1)
[43] = biological target: HIV-1 Env of isolate MGRM-C-022 (subtype C) (HIV-1)
[44] = biological target: HIV-1 Env of isolate MGRM-C-001 (subtype C) (HIV-1)
[45] = biological target: HIV-1 Env of isolate 92BR020 (subtype B) (HIV-1)
[46] = biological target: HIV-1 Env of isolate 93TH305 (subtype B) (HIV-1)
[47] = biological target: HIV-1 Env of isolate 6535.3 (subtype B) (HIV-1)
[48] = biological target: HIV-1 JR-CSF Env D474A (HIV-1 JR-CSF) (UniProt P20871)
[49] = biological target: HIV-1 Env of isolate APV 13 (subtype B) (HIV-1)
[50] = biological target: HIV-1 Env of isolate APV_17 (subtype B) (HIV-1)
[51] = biological target: HIV-1 Env of isolate APV 6 (subtype B) (HIV-1)
[52] = biological target: HIV-1 JR-CSF Env G471A (HIV-1 JR-CSF) (UniProt P20871)

B1: PGT-126 (antibody, V domains shown)
VH: QPQLQESGPGLVEASETLSLTCTVSGDSTAACDYFWGWVRQPPGKGLEWIGGLSHCAGYYNTGWTYHNPSLKSRLTISLDTPKNQVFLKLNSVTAADTAIYYCARFDGEVLVYHDWPKPAWVDLWGRGTLVTVSS
VL: QSALTQPPSASGSPGQSISISCTGTSNRFVSWYQQHPGKAPKLVIYGVNKRPSGVPDRFSGSKSGNTASLTVSGLQTDDEAVYYCSSLVGNWDVIFGGGTKLTVL
- IC50 (µg/mL), neutralization of pseudovirus [1]: > 50 µg/mL
- IC50 (µg/mL), pseudovirus neutralization [2]: > 50 µg/mL
- IC50 (µg/mL), neutralization of pseudovirus [3]: > 50 µg/mL
- IC50 (µg/mL), pseudovirus neutralization [4]: 2.12 µg/mL
- IC50 (µg/mL), neutralization of pseudovirus [5]: > 50 µg/mL
- IC50 (µg/mL), neutralization of pseudovirus [6]: > 50 µg/mL
- IC50 (µg/mL), pseudovirus neutralization [7]: > 50 µg/mL
- IC50 (µg/mL), pseudovirus neutralization [8]: 0.298 µg/mL
- IC50 (µg/mL), neutralization of pseudovirus [9]: 48.8 µg/mL
- IC50 (µg/mL), pseudovirus neutralization [10]: 0.007 µg/mL
- IC50 (µg/mL), pseudovirus neutralization [11]: 0.786 µg/mL
- IC50 (µg/mL), pseudovirus neutralization [12]: 3.14 µg/mL
- IC50 (µg/mL), neutralization of pseudovirus [13]: > 50 µg/mL
- IC50 (µg/mL), pseudovirus neutralization [14]: 0.014 µg/mL
- IC50 (µg/mL), neutralization of pseudovirus [15]: 0.038 µg/mL
- IC50 (µg/mL), neutralization of pseudovirus [16]: 7.32 µg/mL
- IC50 (µg/mL), pseudovirus neutralization [17]: > 50 µg/mL
- IC50 (µg/mL), neutralization of pseudovirus [18]: 0.012 µg/mL
- IC50 (µg/mL), pseudovirus neutralization [19]: 0.111 µg/mL
- IC50 (µg/mL), neutralization of pseudovirus [20]: 0.018 µg/mL
- IC50 (µg/mL), pseudovirus neutralization [21]: 0.17 µg/mL
- IC50 (µg/mL), pseudovirus neutralization [22]: 0.011 µg/mL
- IC50 (µg/mL), pseudovirus neutralization [23]: 0.279 µg/mL
- IC50 (µg/mL), neutralization of pseudovirus [24]: 0.875 µg/mL
- IC50 (µg/mL), neutralization of pseudovirus [25]: 17.1 µg/mL
- IC50 (µg/mL), pseudovirus neutralization [26]: 15.6 µg/mL
- IC50 (µg/mL), pseudovirus neutralization [27]: 0.065 µg/mL
- IC50 (µg/mL), pseudovirus neutralization [28]: 0.033 µg/mL
- IC50 (µg/mL), neutralization of pseudovirus [29]: > 50 µg/mL
- IC50 (µg/mL), pseudovirus neutralization [30]: 0.005 µg/mL
- IC50 (µg/mL), pseudovirus neutralization [31]: 0.042 µg/mL
- IC50 (µg/mL), pseudovirus neutralization [32]: 25.3 µg/mL
- IC50 (µg/mL), neutralization of pseudovirus [33]: > 50 µg/mL
- IC50 (µg/mL), pseudovirus neutralization [34]: 0.196 µg/mL
- IC50 (µg/mL), pseudovirus neutralization [35]: > 50 µg/mL
- IC50 (µg/mL), pseudovirus neutralization [36]: > 50 µg/mL
- IC50 (µg/mL), pseudovirus neutralization [37]: 9.44 µg/mL
- IC50 (µg/mL), neutralization of pseudovirus [38]: 0.009 µg/mL
- Fold IC50 increase relative to wild-type [39]: 2.7 fold
- Fold IC50 increase relative to wild-type [40]: 1.9 fold
- IC50 (µg/mL), neutralization of pseudovirus [41]: > 50 µg/mL
- IC50 (µg/mL), pseudovirus neutralization [42]: > 50 µg/mL
- IC50 (µg/mL), pseudovirus neutralization [43]: 0.96 µg/mL
- IC50 (µg/mL), pseudovirus neutralization [44]: > 50 µg/mL

B2: PGT-130 (antibody, V domains shown)
VH: QVQLQESGPGLVKPAETLSLTCSVSGESINTGHYYWGWVRQVPGKGLEWIGHIHYTTAVLHNPSLKSRLTIKIYTLRNQITLRLSNVTAADTAVYHCVRSGGDILYYYEWQKPHWFSPWGPGIHVTVSS
VL: QSALTQPPSASGSLGQSVTISCNGTSSDIGGWNFVSWYQQFPGRAPRLIIFEVNKRPSGVPGRFSGSKSGNSASLTVSGLQSDDEGQYFCSSLFGRWDVVFGGGTKLTVL
- IC50 (µg/mL), neutralization of pseudovirus [1]: > 50 µg/mL
- IC50 (µg/mL), neutralization of pseudovirus [3]: > 50 µg/mL
- IC50 (µg/mL), neutralization of pseudovirus [5]: > 50 µg/mL
- IC50 (µg/mL), neutralization of pseudovirus [6]: > 50 µg/mL
- IC50 (µg/mL), neutralization of pseudovirus [9]: > 50 µg/mL
- IC50 (µg/mL), pseudovirus neutralization [45]: 1.4 µg/mL
- IC50 (µg/mL), pseudovirus neutralization [46]: 0.021 µg/mL
- IC50 (µg/mL), pseudovirus neutralization [47]: 0.031 µg/mL
- IC50 (µg/mL), neutralization of pseudovirus [13]: > 50 µg/mL
- IC50 (µg/mL), neutralization of pseudovirus [15]: 0.0198 µg/mL
- Fold IC50 increase relative to wild-type [48]: 2 fold
- IC50 (µg/mL), neutralization of pseudovirus [16]: > 50 µg/mL
- IC50 (µg/mL), pseudovirus neutralization [49]: 0.052 µg/mL
- IC50 (µg/mL), neutralization of pseudovirus [18]: 0.074 µg/mL
- IC50 (µg/mL), pseudovirus neutralization [50]: 10.7 µg/mL
- IC50 (µg/mL), neutralization of pseudovirus [20]: 27.9 µg/mL
- IC50 (µg/mL), pseudovirus neutralization [51]: > 50 µg/mL
- IC50 (µg/mL), neutralization of pseudovirus [24]: 4.14 µg/mL
- IC50 (µg/mL), neutralization of pseudovirus [25]: 8.45 µg/mL
- IC50 (µg/mL), neutralization of pseudovirus [29]: 5.84 µg/mL
- IC50 (µg/mL), neutralization of pseudovirus [33]: > 50 µg/mL
- IC50 (µg/mL), neutralization of pseudovirus [38]: 2.23 µg/mL
- IC50 (µg/mL), neutralization of pseudovirus [41]: > 50 µg/mL

B3: PGT-135 (antibody, V domains shown)
VH: QLQMQESGPGLVKPSETLSLSCTVSGDSIRGGEWGDKDYHWGWVRHSAGKGLEWIGSIHWRGTTHYKESLRRRVSMSIDTSRNWFSLRLASVTAADTAVYFCARHRHHDVFMLVPIAGWFDVWGPGVQVTVSS
VL: EIVMTQSPDTLSVSPGETVTLSCRASQNINKNLAWYQYKPGQSPRLVIFETYSKIAAFPARFVASGSGTEFTLTINNMQSEDVAVYYCQQYEEWPRTFGQGTKVDIK
- IC50 (µg/mL), neutralization of pseudovirus [1]: > 50 µg/mL
- IC50 (µg/mL), neutralization of pseudovirus [3]: > 50 µg/mL
- IC50 (µg/mL), neutralization of pseudovirus [5]: > 50 µg/mL
- IC50 (µg/mL), neutralization of pseudovirus [6]: > 50 µg/mL
- IC50 (µg/mL), neutralization of pseudovirus [9]: > 50 µg/mL
- IC50 (µg/mL), pseudovirus neutralization [45]: 0.073 µg/mL
- IC50 (µg/mL), pseudovirus neutralization [46]: > 50 µg/mL
- IC50 (µg/mL), pseudovirus neutralization [47]: > 50 µg/mL
- IC50 (µg/mL), neutralization of pseudovirus [13]: 0.137 µg/mL
- IC50 (µg/mL), neutralization of pseudovirus [15]: 0.393 µg/mL
- IC50 (µg/mL), neutralization of pseudovirus [16]: > 50 µg/mL
- IC50 (µg/mL), pseudovirus neutralization [49]: 0.716 µg/mL
- IC50 (µg/mL), neutralization of pseudovirus [18]: > 50 µg/mL
- IC50 (µg/mL), pseudovirus neutralization [50]: > 50 µg/mL
- IC50 (µg/mL), neutralization of pseudovirus [20]: 0.145 µg/mL
- IC50 (µg/mL), pseudovirus neutralization [51]: > 50 µg/mL
- IC50 (µg/mL), neutralization of pseudovirus [24]: 0.062 µg/mL
- IC50 (µg/mL), neutralization of pseudovirus [25]: 0.592 µg/mL
- Fold IC50 increase relative to wild-type [52]: 3 fold
- IC50 (µg/mL), neutralization of pseudovirus [29]: 0.062 µg/mL
- IC50 (µg/mL), neutralization of pseudovirus [33]: > 50 µg/mL
- IC50 (µg/mL), neutralization of pseudovirus [38]: > 50 µg/mL
- IC50 (µg/mL), neutralization of pseudovirus [41]: > 50 µg/mL
